The values that follow come from patent US20240084003A1 (SIMCERE ZAIMING PHARMACEUTICAL, published 2024).

T1: murine CD22 protein (ACROBiosystems, SI2-M52Ha) (murine, UniProt P35329 22-708)
T1 construct: extracellular domain; also called murine CD22-ECD; murine CD22-ECD-His
T1 sequence (looked up): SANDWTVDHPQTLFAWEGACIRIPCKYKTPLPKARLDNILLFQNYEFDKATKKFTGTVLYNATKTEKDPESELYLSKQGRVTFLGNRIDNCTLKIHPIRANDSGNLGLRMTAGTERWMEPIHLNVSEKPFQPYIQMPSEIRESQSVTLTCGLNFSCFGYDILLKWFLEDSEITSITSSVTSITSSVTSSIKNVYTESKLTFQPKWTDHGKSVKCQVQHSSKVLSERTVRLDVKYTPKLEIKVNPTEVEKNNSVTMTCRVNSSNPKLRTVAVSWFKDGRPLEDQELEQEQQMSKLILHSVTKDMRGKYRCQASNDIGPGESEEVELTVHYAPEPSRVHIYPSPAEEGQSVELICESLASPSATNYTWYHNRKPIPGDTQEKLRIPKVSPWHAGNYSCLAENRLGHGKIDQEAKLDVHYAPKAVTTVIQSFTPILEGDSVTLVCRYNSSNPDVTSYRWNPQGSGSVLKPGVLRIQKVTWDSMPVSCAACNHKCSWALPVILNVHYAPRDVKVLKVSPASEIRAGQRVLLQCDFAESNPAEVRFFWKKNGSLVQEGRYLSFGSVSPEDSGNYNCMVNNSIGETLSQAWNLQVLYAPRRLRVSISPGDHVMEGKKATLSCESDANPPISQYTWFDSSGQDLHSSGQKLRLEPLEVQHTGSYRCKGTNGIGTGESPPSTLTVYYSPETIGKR

T2: human CD22, endogenous on Raji cells (human, UniProt P20273 20-847)
T2 construct: whole, on cells; Endogenous protein of the Raji cell line
T2 sequence (looked up): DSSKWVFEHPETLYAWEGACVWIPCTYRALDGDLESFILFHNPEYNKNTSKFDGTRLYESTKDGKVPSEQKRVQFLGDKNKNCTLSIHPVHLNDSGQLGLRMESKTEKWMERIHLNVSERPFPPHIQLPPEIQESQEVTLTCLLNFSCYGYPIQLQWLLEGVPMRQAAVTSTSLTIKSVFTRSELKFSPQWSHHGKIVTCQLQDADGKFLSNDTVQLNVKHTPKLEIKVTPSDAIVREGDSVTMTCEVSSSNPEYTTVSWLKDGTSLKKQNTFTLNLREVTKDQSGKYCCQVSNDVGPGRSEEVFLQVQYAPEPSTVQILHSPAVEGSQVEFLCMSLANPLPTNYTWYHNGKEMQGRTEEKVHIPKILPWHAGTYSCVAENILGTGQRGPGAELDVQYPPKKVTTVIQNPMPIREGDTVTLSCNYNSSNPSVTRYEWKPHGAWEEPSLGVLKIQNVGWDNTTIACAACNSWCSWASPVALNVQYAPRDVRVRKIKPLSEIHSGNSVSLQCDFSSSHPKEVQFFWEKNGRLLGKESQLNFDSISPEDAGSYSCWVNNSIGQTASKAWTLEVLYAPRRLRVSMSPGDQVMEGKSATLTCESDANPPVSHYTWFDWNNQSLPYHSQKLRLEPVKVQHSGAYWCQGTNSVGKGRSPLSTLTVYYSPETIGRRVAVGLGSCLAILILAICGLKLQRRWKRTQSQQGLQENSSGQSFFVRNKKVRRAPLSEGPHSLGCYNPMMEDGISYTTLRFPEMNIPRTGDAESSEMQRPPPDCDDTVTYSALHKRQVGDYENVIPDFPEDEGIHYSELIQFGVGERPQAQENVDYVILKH

T3: human CD22, full length, on CHO-K1-human CD22 2C4 cells (human, UniProt P20273 20-847)
T3 construct: Full-length human CD22 (NCBI NP_001762.2) stably transfected into CHO-K1
T3 sequence: T2 sequence (looked up)

B1: F2.151.13 human-murine chimeric antibody (antibody, human IgG1, lambda, V domains shown)
VH: QVHLQQPGTELMKPGASVKLSCKATGYTFRDYWLEWVKQRPGHGLEWIGEILPGSGNAYYNEKFKGKATFTADTSSNTAYMQLSSLTTEDSAIYYCARVYSNWYFDAWGKGTTVTVSS
VL: QAVVTQESALTTSPGETVTLTCRSSTGAVTTSNYANWVQEKPDHLFTGLIGGTNNQAPGVPARFSGSLIGDKAALTISGAQTEDEAIYFCALWFSNHWVFGGGTKLTVLG
notes: Chimeric, human IgG1 / lambda
B2: F2.70.2 human-murine chimeric antibody (antibody, human IgG1, lambda, V domains shown)
VH: EVQLVESGGGLVKPGGSLKLSCAASGFTFSDYGMNWFRQAPEKGLEWVAYISRGSHTIYYADTVKGRFTISRDNAKNTLFLQMTSLRSNDTAMYYCVRMAGYYAMDYWGQGTSVTVSS
VL: QLVLTQSSSASFSLGASAKLTCTLSSQHSSYIIEWYQQQPLKPPKYVMELKKDGSHSTGDGIPDRFSGSSSGADRYLSISNIQPEDEAIYICGVGDTIKEQFVYVFGGGTKVTVLG
notes: Chimeric, human IgG1 / lambda
B3: F2.180.16 human-murine chimeric antibody (antibody, human IgG1, lambda, V domains shown)
VH: EVKLVESGGGLVLPGGSLKISCAASGFTFSDYYMYWIRQTPDKRLEWVAYISNTGYSTFYPDSVKGRFTVSRDNAKNTLYLQMSRLQSEDTAMYYCARHGILYAMDYWGQGTSVTVSS
VL: B2 VL with L2P, H28Y, S30T, I32T, E34G, K52H, H56R, S57H, I89T, V103M
notes: Chimeric, human IgG1 / lambda
B4: F2.104.10 human-murine chimeric antibody (antibody, human IgG1, lambda, V domains shown)
VH: B2 VH with L11F, K76E, V114L
VL: B2 VL with L50V, P84S
notes: Chimeric, human IgG1 / lambda

Changes are numbered by the printed parent chain.

One experiment addresses T1, murine CD22 protein (ACROBiosystems, …). Briefly: ELISA, coated murine CD22, 0.01 nM Ab. Put shortly:
(§1)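 Coat 2 μg/mL CD22 in PBS, overnight 4° C; block PBS/2% BSA 2 h RT. Ab 2 h 37° C; HRP anti-species secondary 2 h 37° C. TMB 30 min RT, stop 1.0 N HCl.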
Turning to B1, the OD450 amounted to 0.07 OD450.

B2: the OD450 was 0.06 OD450.

B3: the OD450 amounted to 0.05 OD450.

B4 had an OD450 of 0.07 OD450.

For a further experiment the target is unchanged. As to the kind of experiment: ELISA, coated murine CD22, 0.00001 nM Ab. A digest of the protocol:
as §1
Consider B1, for which the OD450 was determined as 0.07 OD450.

B2 came in with an OD450 of 0.06 OD450.

B3 returned an OD450 of 0.06 OD450.

Molecule B4 came in with an OD450 of 0.05 OD450.

A further experiment has the same target. As to the kind of experiment: ELISA, coated murine CD22, 0.0001 nM Ab. A digest of the protocol: as §1
With B1, the OD450 was 0.07 OD450.

As for B2, the OD450 was 0.06 OD450.

B3: the OD450 was determined as 0.07 OD450.

B4 gave an OD450 of 0.06 OD450.

The target in a further experiment is T2, human CD22, endogenous on Raji cells. Briefly: FACS, Raji cells. The source says:
(§2) The required cells were scale-up cultured in a T-75 cell culture flask to the logarithmic growth phase. For the adherent cell CHO-K1, the medium was aspirated, the cells were washed 2 times with PBS buffer, and then digested with trypsin. After the digestion was terminated, the cells were washed 2 times with PBS buffer. For suspension cell Raji, the medium supernatant was directly centrifuged and discarded, and the cell pellet was washed 2 times with PBS. After counting the cells in the previous step, the cell pellet was resuspended with [PBS+2% (w/w) BSA] blocking solution to 2×10⁶ cells/ml, and added to a 96-well FACS reaction plate at 50 μl/well, and then the chimeric antibody test sample was added at 50 μl/well, and incubated on ice for 2 hours. The mixture was centrifuged and washed 3 times with PBS buffer, Alexa Flour 488-labeled secondary antibody (purchased from Invitrogen, catalog number: A-11013) was added at 50 μl/well, and incubated on ice for 1 hour. The obtained mixture was centrifuged and washed 5 times with PBS, and FACS (FACS Canto™, purchased from BD Company) was used for detection and result analysis. Data analysis was performed by software (CellQuest) to obtain the mean fluorescence density (MFI)of the cells. And then software (GraphPad Prism8) was used for analysis, data fitting, and EC50 value calculation. […] The same method was used to detect the binding of the chimeric antibodies to endogenous CD22-negative cell MoLT4 cells (purchased from ATCC, CRL-1582) and CHO-K1 cells.
For the molecule B1, the EC50 is 1260 pM and the “Maximum mean fluorescence intensity” value came to 18800 MFI.

Regarding B2, the EC50 stood at 350 pM and the “Maximum mean fluorescence intensity” value worked out at 16600 MFI.

With B3, the EC50 came to 880 pM and the “Maximum mean fluorescence intensity” value worked out at 15700 MFI.

Take B4: a half-maximal effect (EC50) was put at 400 pM and the “Maximum mean fluorescence intensity” value turned out to be 16300 MFI.

A further experiment has as its target T3, human CD22, full length, on …. As to the kind of experiment: FACS, CHO-K1-human CD22 2C4 cells.
Text: as §2
As to B1, the EC50 was 3280 pM and the “Maximum mean fluorescence intensity” value stood at 37000 MFI.

In the case of B2, a half-maximal response (EC50) required 760 pM and the “Maximum mean fluorescence intensity” value was determined as 39000 MFI.

B3: the midpoint of the response, the EC50, lay at 1630 pM and the “Maximum mean fluorescence intensity” value worked out at 34400 MFI.

For the molecule B4, the EC50 amounted to 880 pM and the “Maximum mean fluorescence intensity” value was 40600 MFI.

The target in another experiment is T1, murine CD22 protein (ACROBiosystems, …). As to the kind of experiment: ELISA, coated murine CD22, 0.001 nM Ab. A digest of the protocol:
as §1
The molecule B1 yielded an OD450 of 0.07 OD450.

Consider B2, for which the OD450 was determined as 0.06 OD450.

In turn, B3 displayed an OD450 of 0.05 OD450.

Take B4: the OD450 turned out to be 0.06 OD450.

For the next experiment the target is unchanged. Briefly: ELISA, coated murine CD22, 10 nM Ab. A digest of the protocol:
as §1
B1: the OD450 was 0.08 OD450.

In turn, B2 gave an OD450 of 0.07 OD450.

In the case of B3, the OD450 worked out at 0.06 OD450.

In turn, B4 came in with an OD450 of 0.07 OD450.

The target is the same in a further experiment. Briefly: ELISA, coated murine CD22, 100 nM Ab. A digest of the protocol: as §1
As to B1, the OD450 stood at 0.09 OD450.

In turn, B2 registered an OD450 of 0.1 OD450.

In turn, B3 displayed an OD450 of 0.05 OD450.

For the molecule B4, the OD450 is 0.07 OD450.

For the next experiment the target is unchanged. Briefly: ELISA, coated murine CD22, 0.1 nM Ab. Put shortly:
as §1
In turn, B1 yielded an OD450 of 0.07 OD450.

As for B2, the OD450 came out at 0.06 OD450.

The molecule B3 displayed an OD450 of 0.05 OD450.

As for B4, the OD450 was 0.06 OD450.
